Experimental data as given in publication PMC7734321.

How the values were obtained:
Assay in all cases: MST
Conditions in all cases: N6 of strand 1 = tetrahydrofuran (F, abasic site analog), opposite G; MST: 50 mM Tris-HCl pH 7.5, 50 mM KCl, 1 mM EDTA, 1 mM DTT, 7% glycerol, 25 C, 10 min, 0.5 uM DNA; authors call Kd values estimates only
[1] = target: T1, Fpg (formamidopyrimidine-DNA glycosylase) (Escherichia coli) (UniProt P05523)
T1 sequence: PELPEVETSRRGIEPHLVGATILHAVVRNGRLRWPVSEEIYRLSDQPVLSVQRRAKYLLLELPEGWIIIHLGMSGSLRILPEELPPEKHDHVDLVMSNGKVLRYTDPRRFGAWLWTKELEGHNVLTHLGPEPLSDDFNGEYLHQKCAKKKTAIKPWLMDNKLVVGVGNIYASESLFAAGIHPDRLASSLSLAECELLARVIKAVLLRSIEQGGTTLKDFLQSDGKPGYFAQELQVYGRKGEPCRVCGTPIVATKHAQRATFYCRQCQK

[2] = target: OGG1 (8-oxoguanine-DNA glycosylase) (Homo sapiens) (UniProt O15527)
[3] = target: T2, NTH1 (endonuclease III) (Homo sapiens) (UniProt P78549)
T2 sequence: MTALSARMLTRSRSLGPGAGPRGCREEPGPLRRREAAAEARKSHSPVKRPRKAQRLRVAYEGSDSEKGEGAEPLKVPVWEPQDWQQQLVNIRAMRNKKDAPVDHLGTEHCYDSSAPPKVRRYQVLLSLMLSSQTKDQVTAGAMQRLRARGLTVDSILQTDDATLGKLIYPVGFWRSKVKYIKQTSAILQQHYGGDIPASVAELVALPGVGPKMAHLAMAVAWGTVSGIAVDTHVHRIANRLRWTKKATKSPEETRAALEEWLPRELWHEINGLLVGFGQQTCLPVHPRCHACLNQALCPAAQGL

[4] = target: NEIL1 (endonuclease VIII-like 1) (Homo sapiens) (UniProt Q96FI4)
[5] = target: T3, Nei (endonuclease VIII) (Escherichia coli) (UniProt P50465)
T3 sequence: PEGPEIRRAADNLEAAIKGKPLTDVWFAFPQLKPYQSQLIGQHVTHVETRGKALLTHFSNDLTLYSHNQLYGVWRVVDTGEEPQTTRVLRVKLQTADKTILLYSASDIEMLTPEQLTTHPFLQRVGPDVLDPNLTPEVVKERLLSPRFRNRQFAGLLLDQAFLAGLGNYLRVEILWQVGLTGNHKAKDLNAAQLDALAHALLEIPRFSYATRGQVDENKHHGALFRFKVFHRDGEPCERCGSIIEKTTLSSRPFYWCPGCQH

OGG1 (8-oxoguanine-DNA glycosylase) (Homo sapiens), sequence (O15527 whole entry): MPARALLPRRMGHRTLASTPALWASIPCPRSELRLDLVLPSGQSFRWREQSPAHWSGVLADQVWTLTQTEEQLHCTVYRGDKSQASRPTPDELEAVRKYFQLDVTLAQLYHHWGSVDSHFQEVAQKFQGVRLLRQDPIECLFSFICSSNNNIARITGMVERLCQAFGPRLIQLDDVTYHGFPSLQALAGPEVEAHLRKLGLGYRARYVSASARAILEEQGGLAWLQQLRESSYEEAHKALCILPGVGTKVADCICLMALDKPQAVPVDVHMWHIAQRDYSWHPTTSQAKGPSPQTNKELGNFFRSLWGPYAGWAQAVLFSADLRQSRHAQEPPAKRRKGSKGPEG
NEIL1 (endonuclease VIII-like 1) (Homo sapiens), sequence (Q96FI4 2-390): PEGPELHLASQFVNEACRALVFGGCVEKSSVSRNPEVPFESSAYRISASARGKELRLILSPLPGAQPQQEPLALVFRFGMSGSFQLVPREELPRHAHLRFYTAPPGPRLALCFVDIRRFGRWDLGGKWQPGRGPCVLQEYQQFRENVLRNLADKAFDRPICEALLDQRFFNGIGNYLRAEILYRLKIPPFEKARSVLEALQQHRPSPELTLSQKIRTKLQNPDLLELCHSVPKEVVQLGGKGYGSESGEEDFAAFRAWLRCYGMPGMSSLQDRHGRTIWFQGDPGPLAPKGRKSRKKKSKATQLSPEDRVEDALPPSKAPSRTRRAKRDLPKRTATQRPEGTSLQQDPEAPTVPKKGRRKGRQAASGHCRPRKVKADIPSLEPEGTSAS

GCTCANGTACAGAGCTG / CAGCTCTGTACGTGAGC [F/G]
Kd [1]: 1900 nM
Kd [2]: 2800 nM
Kd [3]: 300 nM
Kd [4]: 4400 nM
Kd [5]: 500 nM
